Laboratory results published in patent US9969784B2, “Compositions and methods for modulation of immune function” (THE CHILDREN'S HOSPITAL OF PHILADELPHIA, priority 2013, dated 2018).

Experiments:
Itch = target: T1, Itch (Homo sapiens, UniProt Q96J02); experiment: ubiquitin charging assay (cell free), Itch; type: biochemical; details: E1, E2, ubiquitin, ATP and Mg++, then EDTA, Itch added with the substance
T1 construct: made in house
Method: FIGS. 1A-1D. Ndfip1 and Ndfip2 promote ubiquitin charging of Itch. FIG. 1A: E1, E2, ubiquitin, ATP and Mg++ were incubated together to prepare the E2 for ubiquitin transfer. EDTA was added to prevent further transfer of ubiquitin from E1 to E2. This ensures that only a single ubiquitin will be transferred. Itch was then added to the reaction with or without Ndfip1 or Ndfip2. […] FIG. 1C: Schematic diagram of auto-inhibition by Itch and activation by Ndfip1. FIG. 1D: Ndfip peptide mimics therapeutically activate
(§1) There are 9 members of the Nedd4-family of E3 ubiquitin ligases. These ligases are unusual in that there is a high degree of sequence similarity. All family members are composed of a HECT domain (the catalytic subunit), 2-4 WW domains, and a single C2 domain. Auto-inhibition of family members has been described by others, and different mechanisms of auto-inhibition have been proposed. […] We have devised a new way to look at auto-inhibition, namely by using a ubiquitin charging assay which is the initial event in activating Nedd4-family E3 ubiquitin ligases. Ubiquitin charging occurs when an E2 ubiquitin conjugating enzyme transfers ubiquitin to the catalytic cysteine of the Nedd4-family E3 ligase. […] We have determined that Ndfip1 and Ndfip2 are not required for Itch to bind the E2, as association between E2 and Itch occur in the absence of Ndfip1 and Ndfip2. […]

Nedd4 = experiment: ubiquitin charging assay, Nedd4; type: biochemical; details: carried out for 30 seconds
Sequence of Nedd4 (P46934 whole entry, species assumed): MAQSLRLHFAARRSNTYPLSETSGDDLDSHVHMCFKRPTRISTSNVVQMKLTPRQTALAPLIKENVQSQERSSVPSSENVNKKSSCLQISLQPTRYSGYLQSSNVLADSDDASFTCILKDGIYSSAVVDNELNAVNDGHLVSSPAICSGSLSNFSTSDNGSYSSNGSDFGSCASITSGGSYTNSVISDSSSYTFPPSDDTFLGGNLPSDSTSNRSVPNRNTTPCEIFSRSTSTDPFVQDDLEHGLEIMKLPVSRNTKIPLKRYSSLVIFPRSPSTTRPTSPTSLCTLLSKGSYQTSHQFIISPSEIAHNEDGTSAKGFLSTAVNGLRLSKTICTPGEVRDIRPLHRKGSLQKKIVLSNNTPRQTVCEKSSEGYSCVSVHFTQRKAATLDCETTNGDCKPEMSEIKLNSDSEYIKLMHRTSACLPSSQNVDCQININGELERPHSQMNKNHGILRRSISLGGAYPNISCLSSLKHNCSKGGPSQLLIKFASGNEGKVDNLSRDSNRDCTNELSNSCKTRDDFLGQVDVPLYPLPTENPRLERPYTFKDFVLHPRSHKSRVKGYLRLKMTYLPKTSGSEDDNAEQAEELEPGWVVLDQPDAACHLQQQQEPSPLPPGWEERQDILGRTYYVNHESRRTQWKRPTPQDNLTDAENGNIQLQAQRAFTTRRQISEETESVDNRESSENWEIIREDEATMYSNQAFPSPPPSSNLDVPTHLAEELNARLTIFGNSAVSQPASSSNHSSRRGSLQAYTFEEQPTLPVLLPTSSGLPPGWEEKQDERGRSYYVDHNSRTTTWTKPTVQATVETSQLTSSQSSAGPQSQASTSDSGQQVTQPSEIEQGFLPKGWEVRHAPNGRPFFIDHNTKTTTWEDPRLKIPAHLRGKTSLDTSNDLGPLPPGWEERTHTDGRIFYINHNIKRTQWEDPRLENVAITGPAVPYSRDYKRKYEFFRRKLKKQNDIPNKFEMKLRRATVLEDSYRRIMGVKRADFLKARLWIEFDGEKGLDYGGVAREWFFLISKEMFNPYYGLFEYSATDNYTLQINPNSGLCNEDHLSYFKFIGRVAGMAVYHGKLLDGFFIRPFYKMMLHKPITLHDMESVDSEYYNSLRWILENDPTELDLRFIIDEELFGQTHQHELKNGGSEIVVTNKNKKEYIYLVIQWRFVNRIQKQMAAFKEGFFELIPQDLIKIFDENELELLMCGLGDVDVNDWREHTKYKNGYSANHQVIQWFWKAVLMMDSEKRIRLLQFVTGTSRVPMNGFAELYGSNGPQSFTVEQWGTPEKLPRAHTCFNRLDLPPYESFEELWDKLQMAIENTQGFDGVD
Method: FIG. 8. Multiple Nedd4-family members likely share this mechanism of auto-inhibition and relief by Ndfip1 and Ndfip2. Nedd4 and Itch were expressed, purified and tested in the ubiquitin charging assay in the presence or absence of Ndfip1 or Ndfip2 as shown. Neither Itch nor Nedd4 were charged with ubiquitin in the assay when Ndfip1 or Ndfip2 were omitted from the assay. These assays were carried out for 30 seconds.
as §1, with “ligase. This event is absolutely required for catalytic activity of the E3 ligase.” for “ligase.”

T1 sequence (Q96J02 whole entry, species assumed): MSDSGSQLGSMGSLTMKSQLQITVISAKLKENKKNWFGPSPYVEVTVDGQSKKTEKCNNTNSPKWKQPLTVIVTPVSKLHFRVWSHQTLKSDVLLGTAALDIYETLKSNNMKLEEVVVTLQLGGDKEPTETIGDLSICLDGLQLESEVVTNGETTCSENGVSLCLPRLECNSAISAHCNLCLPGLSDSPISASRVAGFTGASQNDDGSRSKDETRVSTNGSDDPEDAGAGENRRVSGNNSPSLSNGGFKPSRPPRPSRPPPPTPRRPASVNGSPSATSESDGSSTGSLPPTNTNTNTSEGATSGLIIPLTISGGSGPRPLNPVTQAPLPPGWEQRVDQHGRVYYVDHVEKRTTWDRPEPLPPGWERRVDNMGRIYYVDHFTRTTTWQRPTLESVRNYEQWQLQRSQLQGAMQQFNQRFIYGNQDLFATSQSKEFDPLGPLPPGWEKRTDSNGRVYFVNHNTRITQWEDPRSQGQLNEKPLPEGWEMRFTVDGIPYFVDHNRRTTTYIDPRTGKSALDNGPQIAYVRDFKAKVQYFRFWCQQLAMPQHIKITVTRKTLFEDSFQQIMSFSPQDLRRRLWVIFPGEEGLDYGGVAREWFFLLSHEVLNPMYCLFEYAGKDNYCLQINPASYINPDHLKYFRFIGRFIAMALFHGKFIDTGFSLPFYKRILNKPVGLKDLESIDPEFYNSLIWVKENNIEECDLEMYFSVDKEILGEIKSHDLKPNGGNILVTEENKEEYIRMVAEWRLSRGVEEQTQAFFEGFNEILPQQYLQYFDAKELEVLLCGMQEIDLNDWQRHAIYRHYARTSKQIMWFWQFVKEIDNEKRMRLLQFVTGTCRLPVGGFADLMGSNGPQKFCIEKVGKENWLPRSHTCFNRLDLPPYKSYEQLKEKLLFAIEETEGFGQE

- ubiquitin charging of Itch (Itch): ubiquitin charging of Itch is observed
B1: Ndfip2: adaptor of the Ndfip family that relieves auto-inhibition of Nedd4-family E3 ligases (protein, UniProt Q9NV92 1-336, looked up)
NEDD4 family-interacting …: MARRRSQRVCASGPSMLNSARGAPELLRGTATNAEVSAAAAGATGSEELPPGDRGCRNGGGRGPAATTSSTGVAVGAEHGEDSLSRKPDPEPGRMDHHQPGTGRYQVLLNEEDNSESSAIEQPPTSNPAPQIVQAASSAPALETDSSPPPYSSITVEVPTTSDTEVYGEFYPVPPPYSVATSLPTYDEAEKAKAAAMAAAAAETSQRIQEEECPPRDDFSDADQLRVGNDGIFMLAFFMAFIFNWLGFCLSFCITNTIAGRYGAICGFGLSLIKWILIVRFSDYFTGYFNGQYWLWWIFLVLGLLLFFRGFVNYLKVRNMSESMAAAHRTRYFFLL
- relief of Nedd4 auto-inhibition (Nedd4): auto-inhibition was relieved
